The labels stand for the following.
B1: Cytochrome b5 type B, P04166 (parent)
chain: MATPEASGSGRNGQGSDPAVTYYRLEEVAKRNTAEETWMVIHGRVYDITRFLSEHPGGEEVLLEQAGADATESFEDVGHSPDAREMLKQYYIGDVHPNDLKPKDGDKDPSKNNSCQSSWAYWIVPIVGAILIGFLYRHFWADSKSS

Variants of B1 are the subject of this data set. The conditions noted are these: Rattus norvegicus, pH 7, CD, potassium phosphate buffer, transition: 2, reversible: yes, structure 1B5M, whole UniProt chain shown; for denaturant midpoint (higher = more stable): 25 °C, GdnHCl; for Tm / change of melting temperature, mutant - wild type (higher = more stable): Thermal.

This note sets out measurements from FireProtDB (doi:10.1021/bi010636i).

“And” between values parts separate entries of the source, which are not always exact repeats. Equal values may be shown once.

The Tm is the temperature at which the thermal transition is half complete.

Regarding MATPEASGSGRNGQGSDPAVTYYRLEEVAKRNTSEETWMVIHGRVYDITRFLSEHPGGEEVLREQAGADATESFEDVGHSPDAREMLKQYYIGDVHPNDLKPKDGDKDPSKNNSCQSSWAYWIVPIVGAILIGFLYRHFWADSKSS [A34S L63R], the “denaturant midpoint (higher = more stable)” value (“denaturant midpoint” below) is 3.56 M and 3.52 M; the Tm turned out to be 83.3 °C; the “change of melting temperature, mutant - wild type (higher = more stable)” value (“change of melting temperature, mutant” for short) was -3.7 °C.
With MATPEASGSGRNGQGSDPAVTYYRLEEVAKRNTSEETWMVIHGRVYDLTRFLSEHPGGEEVLREQAGADATESFEDVGHSPDAREMLKQYYIGDVHPNDLKPKDGDKDPSKNNSCQSSWAYWIVPIVGAILIGFLYRHFWADSKSS [A34S I48L L63R], the “denaturant midpoint” value was 3.34 M and 3.33 M; the Tm was 81.8 °C; the “change of melting temperature, mutant” value is -5.2 °C.
Consider MATPEASGSGRNGQGSDPAVTYYRLEEVAKRNTAEETWMVIHGRVYDLTRFLSEHPGGEEVLLEQAGADATESFEDVGHSPDAREMLKQYYIGDVHPNDLKPKDGDKDPSKNNSCQSSWAYWIVPIVGAILIGFLYRHFWADSKSS [I48L], for which the “denaturant midpoint” value is 3.93 M and 3.91 M; the melting temperature (Tm) was determined as 85.7 °C; the “change of melting temperature, mutant” value is -1.3 °C.
